According to the nanobody polyreactivity screen of Harvey et al. (2022):

Experiment: yeast display, Sf9 membrane polyspecificity reagent, FACS + sequencing; frameworks hold sequencing errors
How it was run: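 In a synthetic yeast display library (Saccharomyces cerevisiae BJ5465), nanobody expression was induced with galactose for 36–48 hours. FACS gates were set low and high (top ~1%) using anti-HA fluorescence for expression and streptavidin fluorescence for binding of the Sf9 membrane reagent. Each polyreactivity label is drawn from the gate of origin.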

Sequence | polyreactivity (PSR sort gate)
QVQLVESGGGLVQAGGSLRLSCAAYGSTFGDYAMGWYRQAPGKERELVAAITIGGITTYADSVKGRFTISRDNAKNTVYLQMNSLKPEDTAVYYCADAERGDWDDYWGQGTQVTVSS | low polyreactivity
QVQLVESGGGLVQAGGSLRLSCAASGRISLSNAMGWYRQAPGKEREFVAAITKRSDRTYYADSVKGRFTISRDNAKNTVYLQMNSLKPEDTAVYYCAAKPLFGTRDEYWGQGTQVTVSS | low polyreactivity
QVQLVESGGGIVQAGGSLRLSCAASGFTYARYAKGWYRQAPGKERELVAAITRRGGSTHYADSVKGRFTISRDNAKNTVYLQMTSLKPEDTAVDYCAAYSLHNYLSEYGDWGQGTQVTVSS | high polyreactivity
QVQLVESGGGLVQAGGSLRLSCAASGITFAYYAMGWYRQAPGKERELVAAIRWSGGDTYYADSVKGRFTISRDNAKNTVYLQMNSLKPEDTAVYYCAADTTWGYDYWGQGTQVTVSS | low polyreactivity
QVQLVESGGGLVQAGGSIRLSCAASGSIFYHNAMGWYRPAPGKERELVAAITWSGSTTYYADSVKGRFTISRDNGKNTVYLQMNSLKPEDTAVYYCNAGNRHGHYDYWGQGTQVTVSS | low polyreactivity
QVQVVESGGGIVQAGGSHRLSCAAYGSIFLPYAMGWYRQAPGKDRELVAAITRGGDSTYADSVKGRFTISRDNAMYTVDLQMNSLKRDDTAVFYCAAGAGFESDYWGQGTQVTVAS | low polyreactivity
QVQLVESGGGLFQAGGSLRLSCAASGSTFVANAMGWYRQAPGKERELVAAISSSGGSTYYADSVKGRFTISRDIAKNTVYLQMNSLKHDDTAVYYCNARSISRKKGYPPQRRDGYWGQGTQVTVSS | high polyreactivity
QVQLVESGGGLVQAGGSLRLSCAASGMTFTSNVLGWYRQAHGKERELVAAISSGGSTYDADSVKGRFTMSRDNAKNTVYLQMNSLKPEDTAVYYCNSKLWGQYDYWGQGTQVTVSS | low polyreactivity
QVQLVESGGGLVQAGGSLRLSCAASGSIFHYYAMGWYRQATGKERELVAAISTSGGSTYYADSVKGRFTISRDNAKNTVYLQMNSLKPEDTAVYYCNAVYYYFPVGDDEYWGQGTQVTVSS | high polyreactivity
QVQLVESGGGLVQEGGSLRLSCAASGRIFRVYTMGWYRQAPGKERELVASITGRGGSTYYADSVKGRFTISRDNAKNTVYLQMNSLKPEDTAVYYCAAQTFRGFSEFDYWGQGTQVTLSS | high polyreactivity
QDQLVESGGGLVQAGGSLRLSCAASGFILKYYAMGWYRQAPGKEREFVAAITVSGGSTYYADSVKGRFTISRDNAKNTVYLQMNSLKPVDTAVYYCNADYPRGGAGLPDYWGQGTQVTVSS | low polyreactivity
QVQLVESGGGLVQAGGSLRLSCAASGSTFEDYAMGWYRQAPGKERELVAVITGNGGSTNYADSVKGRFTISRDNAKNTVYLQMNSLKPEDTAVYYCAADFYTFVRSDYWGQGTQVTVSS | low polyreactivity
QVQLVESGGGLVQAGGSLRLSCAASGRIFSRYVMGWYRQAPGKERELVAAISWNGGSTYYADSVKGRFRISRDNAKNTVYFQMNSLIPEDTAVYYCAARVRVTGTYYTKYDYWGQGTQVTVSS | high polyreactivity
QVQLVESGGGLVQAGGSLRLSCAASGRIFTYYAMGWYRQAPGKERQLVAAISSGTGTNYADSVKGRFTNSRDNAKNTVYLQMNSLKPEDTAVYDCAADRQHVVVGYYYWGQGTQVTVSS | low polyreactivity
QVQLVESGGGLVQAGGSLRLSCAASGSIFVYNDKGWYRQAPGKERELVADISSGGTTDYADSVKGRFTISRDNAKNTVYLQMNSLKPEDTAVYYCAAESYIEYYLKYDYWGQGTQVTVSS | low polyreactivity
QVQLVESGGGLVQAGGSLRLSCAASGSIFRFYAMGWYRQAPGKERELVAAITSGGSTNYADSVKGRFTISRDNAKNTVYLQMNSLKPEDTAVYYCAAELVYFFIYDYWGQGTQVTVSS | low polyreactivity
